Reference: PMC8873214, “RIOX1-demethylated cGAS regulates ionizing radiation-elicited DNA repair” (Bone Research, 2022)

Target: T1, purified K491me-bearing Flag-cGAS (mouse, UniProt Q8C6L5 1-507, monomethyl-lysine at K491)
T1 construct: cyclic GMP-AMP synthase (cGAS), mouse (K491 is the mouse numbering); also called K491me-bearing cGAS; purified Flag-cGAS protein methylated by His-SET7; source: bacterially purified, then methylated in vitro with purified His-SET7
Experiment: pull-down; purified Flag-cGAS methylated in vitro by purified His-SET7, incubated with purified SGF29, then with biotin-PAR; streptavidin pulldown, immunoblot; binding of SGF29 read from the loss of PAR-bound cGAS
Settings: both partners purified

T1 sequence (Q8C6L5 whole entry): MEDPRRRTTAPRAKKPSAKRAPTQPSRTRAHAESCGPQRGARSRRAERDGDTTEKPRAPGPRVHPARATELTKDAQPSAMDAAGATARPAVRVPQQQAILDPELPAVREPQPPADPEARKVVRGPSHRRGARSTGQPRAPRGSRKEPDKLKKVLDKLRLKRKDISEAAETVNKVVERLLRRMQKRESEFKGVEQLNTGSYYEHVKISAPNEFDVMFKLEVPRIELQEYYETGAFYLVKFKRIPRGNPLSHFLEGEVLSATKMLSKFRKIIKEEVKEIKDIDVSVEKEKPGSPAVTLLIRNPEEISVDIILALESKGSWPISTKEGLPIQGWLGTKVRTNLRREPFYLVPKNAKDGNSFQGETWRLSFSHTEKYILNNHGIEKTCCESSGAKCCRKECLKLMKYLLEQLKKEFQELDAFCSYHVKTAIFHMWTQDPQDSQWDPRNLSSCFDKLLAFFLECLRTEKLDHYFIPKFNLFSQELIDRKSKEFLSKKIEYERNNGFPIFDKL

B1: purified His-SGF29 protein (natural protein, mouse, UniProt Q9DA08 1-293, looked up)
chain: MALVSADSRIAELLTELHQLIKQTQEERSRSEHNLVNIQKTHERMQTENKISPYYRTKLRGLYTTAKTDAEAECNILRKALDKIAEIKSLLEERRIAAKIAGLYNDSEPPRKTMRRGVLMTLLQQSAMTLPLWIGKPGDKPPPLCGAIPASGDYVAKPGDKVAARVKAVEGDEQWILAEVVSYSHATNKYEVDDIDEEGKERHTLSRRRIIPLPQWKANPETDPEALFQKEQLVLALYPQTTCFYRALIHTPPQRPQDDYSVLFEDTSYADGYSPPLNVAQRYVVACKEPKKK
notes: SAGA complex-associated factor 29 (SGF29); mouse and human SGF29 were cloned; also called purified WT SGF29 protein; source: E. coli BL21(DE3), purified
binding result: binds
